The text below walks through data of patent publication US20190127468A1.

Experiment [1] has as its target human CTLA-4Fc mutant protein M11 (human). Description: ELISA on coated target; binder 0 (background).
In experiment [2] the target is mouse CTLA4-Fc (mouse) (UniProt P09793). Description: ELISA on coated target; binder 0 (background).
Experiment [3] has as its target human CTLA-4Fc mutant protein M11 (human). In words: ELISA on coated target; binder 1000 ng/ml.
The target of experiment [4] is mouse CTLA4-Fc (mouse) (UniProt P09793). Description: ELISA on coated target; binder 1000 ng/ml.
For experiment [5], the target named is human CTLA-4Fc mutant protein M11 (human). In words: ELISA on coated target; binder 100 ng/ml.
Chain of human CTLA-4Fc mutant protein M11 (human) (chain, as listed by the source mutant limits assumed): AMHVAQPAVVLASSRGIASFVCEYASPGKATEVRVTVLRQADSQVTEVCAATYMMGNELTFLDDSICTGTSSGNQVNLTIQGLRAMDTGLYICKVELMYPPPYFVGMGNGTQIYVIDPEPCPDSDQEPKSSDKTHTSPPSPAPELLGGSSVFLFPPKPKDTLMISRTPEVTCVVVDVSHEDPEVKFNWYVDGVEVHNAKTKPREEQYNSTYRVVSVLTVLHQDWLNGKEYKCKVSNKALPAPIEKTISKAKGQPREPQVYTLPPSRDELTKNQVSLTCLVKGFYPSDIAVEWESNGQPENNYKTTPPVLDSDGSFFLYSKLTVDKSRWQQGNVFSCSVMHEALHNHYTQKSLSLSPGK
Experiment [6] deals with mouse CTLA4-Fc (mouse) (UniProt P09793). Description: ELISA on coated target; binder 100 ng/ml.
The target of experiment [7] is human CTLA-4Fc mutant protein M11 (human). In words: ELISA on coated target; binder 10 ng/ml.
Experiment [8] concerns the target mouse CTLA4-Fc (mouse) (UniProt P09793). Description: ELISA on coated target; binder 10 ng/ml.
For experiment [9], the target named is mouse CTLA4-Fc fusion protein (mouse) (UniProt P09793). Description: ELISA, binding to plate-bound mouse CTLA4-Fc.

Where “and” joins values, the source holds several entries; their conditions need not be identical. Equal values may be shown once.

B1: chimeric L3D10 antibody (antibody, V domains shown)
VH: QVQLKESGPGLVAPSQSLSITCTVSGFSLTSYGLSWVRQPPGKGLEWLGVIWYDGNTNFHSALISRLTISKDNSKSQVFLELNSLQTDDTATYYCAKTEGHYYGSNYGYYALDYWGQGTSVTVSS
VL: DIQMTQSPASLSVSVGETVTITCRASENIYSNLAWYQQKQGKSPQLLVYAATNLADGVPSRFSGSGSGTQYSLKINSLQSEDFGTYFCQHLWGTPYTFGGGTKLEIKR
modifications: biotinylated (sites not given)
Take B1: the OD450 in experiment [1] was 0.171 OD and 0.155 OD; with mouse CTLA4-Fc (mouse) [2] it was 0.19 OD and 0.189 OD; in [3], 2.89 OD and 2.91 OD; with mouse CTLA4-Fc (mouse) [4], 0.942 OD and 0.94 OD; in experiment [5], 0.752 OD and 0.746 OD; in the experiment with mouse CTLA4-Fc (mouse) [6], 0.303 OD and 0.314 OD. Further, the OD450 is 0.19 OD and 0.194 OD in experiment [7]; 0.201 OD and 0.18 OD with mouse CTLA4-Fc (mouse) [8].

B2: anti-mouse CTLA4 mAb 9H10 (antibody, from another filing)
scFv: YPYDVPDYAGAQPARSDIVMTQSPSSLAVSVGEKVTISCKSSQSLLYGSSHYLAWYQQKVGQSPKLLIYWASTRHTGIPDRFIGSGSGTDFTLSLSSVQAEDMADYFCQQYFSTPWTFGAGTRVEIKSGSGGGSGGGSGGGSQVQLLQSESELVKPGASVKLSCKTSGYTFTDYYIHWVKQKPGQGLEWIGLINPNNDGTNYNQKFQGKATLTADKSSSTAYMELNSLTFDDSVIYFCARASSRLRMARTTSDYYAMDYWGQGIQVTVSSVDSSGSGGCKPCICTVPEVSSVFIFPPKPKDVLTITLTPKVTCVVVDISKDDPEVQFSWFVDDVEVHTAQTQPREEQFNSTFRSVSELPIMHQDWLNGKEFKCRVNSAAFPAPIEKTISKTKGRPKAPQVYTIPPPKEQMAKDKVSLTCMITDFFPEDITVEWQWNGQPAENYKNTQPIMDTDGSYFVYSKLNVQKSNWEAGNTFTCSVLHEGLHNHHTEKSLSHSPGK
Molecule B2 came in with a concentration giving a half-maximal response (EC50 (read off the curve)) in experiment [9] of 1 µg/mL.
